Literature values, collected in publication PMC8329073.

Biological target: Thrombin (UniProt P00734+P00734)
Conditions: 20 mM Tris-HCl pH 7.5 (22 °C), 100 mM NaCl, 0.1 mM EDTA, 5 mM MgCl2 (20 mM MgCl2 for DNAzyme), room temperature; indirect read-out by strand-displacement …

thrombin DNA aptamer (parent, ref 67)
Kd: 0.5 nM
